Columns and labels:
[1] = target: BRAG2^(Sec7-PH 390–811) (human)
[2] = target: BRAG2^(Sec7-PH 390–763) (human)

| Substance | kcat/Km of GDP/GTP exchange in solution (tryptophan fluorescence kinetics, 37°C, 1 µM Arf) [1] [M⁻¹ s⁻¹] | kcat/Km of GDP/GTP exchange in solution (tryptophan fluorescence kinetics, 37°C, 1 µM Arf) (BRAG2^Sec7 (human)) [M⁻¹ s⁻¹] | kcat/Km of GDP/GTP exchange in solution (tryptophan fluorescence kinetics, 37°C, 1 µM Arf) [2] [M⁻¹ s⁻¹] |
| --- | --- | --- | --- |
| Δ13Arf6 (from UniProt P62330 14-175) (domain or fragment) | 50000 | 10000 | 50000 |
| Δ17Arf1 (from UniProt P84077 18-181) (domain or fragment) | 250000 | 20000 | 240000 |

— PMC3769224
